Data published in paper PMC5737657 (Nucleic Acids Research, 2017).

Biological target: the molecule itself
Experiment: crystal structure

B1: VapC26 toxin with N-terminal (His)6 tag (native, co-expressed with VapB26) (natural protein)
chain: MIIDTSALLAYFDAAEPDHAAVSECIDSSADALVVSPYVVAELDYLVATRVGVDAELAVLRELAGGAWELANCGAAEIEQAARIVTKYQDQRIGIADAANVVLADRYRTRTILTLDRRHFSALRPIGGGRFTVIP
- binding result: binds
